Reference: patent US20250282874A1
pEC50: −log10 of the molar value.

Biological target: human PD-L1 expressed on cells (human) (UniProt Q9NZQ7)
Test: flow cytometry on 293T-PD-L1-CD3L cells, PE anti-human IgG, Mean PE-A; fit of a nearly flat control curve

## Isotype control (antibody)
  pEC50: 7.54
